Assay results: patent US6159704

Legend:
[1] = molecular target: PP2Ac of COS-1 cells (endogenous PP2A catalytic subunit / PP2A activity); test: 12CA5 immunoprecipitation from transfected COS-1 cells, PP2A activity in the precipitate
[2] = molecular target: PP2Ac of COS-1 cells (endogenous PP2A catalytic subunit / PP2A activity); test: 12CA5 immunoprecipitation from transfected COS-1 cells, PP2A activity on 32P-LRRASVA
[3] = molecular target: 32P-labeled synthetic peptide LRRASVA (Kemptide Val^6, Ala^7) (Artificial Sequence)

Row | PP2A activity with 32P-labeled synthetic peptide (LRRASVA) as substrate, with and without 10 nM okadaic acid [3] [U/mg] | Substance | fold PP2A activity against eRF1 immunoprecipitates [1] [fold] | % immunoprecipitated (of PP2A activity) [2] [%] | PP2A activity in immunoprecipitates (mU) [2] [mU]
1 | – | HA-tagged human PR65α expressed in COS-1 cells (from UniProt P30153) | 10 | 3.7 | 17
2 | 2.4 | PP2Ac of COS-1 cells (endogenous PP2A catalytic subunit / PP2A activity) (enzyme) | – | – | –
